Some results are limits rather than exact numbers.

The values that follow come from patent US20260185137A1, “FRET Active E2-UBL Conjugates and Uses Thereof” (Board of Regents, The University of Texas System, priority 2021, published 2026).

The target of one data set is T1, UBE2N/V2-Ub conjugate (Homo sapiens, UniProt P61088).
T1 construct: made in house; host or cells: bacteria
Nature of the data set: FRET ubiquitin discharge assay, UBE2N/V2-Ub conjugate. It counts as biochemical. The note with it: per RING monomer; room temperature. The text has this:
To evaluate contributions of distinct RING oligomeric states to TRIM5α autoubiquitination we investigated the catalytic activity of the RING constructs. E3 ubiquitin ligases catalyze the transfer of ubiquitin from the high-energy thioester-linked E2-Ub conjugates onto an amine group of the substrate. One of the challenges in the mechanistic studies of E3 ligases is the difficulty of measuring rates of chemical transformations catalyzed by E3 ligases with sufficient precision. In this study we developed a FRET-based ubiquitin discharge assay that allows continuous, real-time measurement of E3-catalyzed ubiquitin release from E2-Ub conjugates present at nanomolar concentrations in multiple samples in parallel using a fluorescence plate reader (FIG. 3A). […] FRET signals of the E2-Ub conjugates were recorded as a function of time following addition of different RING constructs using AF488 excitation (485/20 nm) and AF594 emission (645/40 nm) bandpass filters. We observed that more than 40% of the total fluorescence signal decayed in a RING-dependent fashion and could, therefore, be attributed to the FRET signal of the conjugate. The outstanding sensitivity, signal-to-noise and throughput of the FRET decay measurements enabled robust and accurate quantification of ubiquitin discharge. […]

The target of the next data set is T2, TRIM5α RING domain (Macaca mulatta, UniProt Q0PF16).
T2 construct: The R1 constructs encompass residues 2-90 of rhesus monkey TRIM5α; 6His (N, cleaved yes); GB1 solubility tag (N, cleaved yes); made in house; host or cells: bacteria
In words: 15N HSQC NMR spectroscopy of RING constructs (dimer-monomer exchange). The settings on record: NMR time scale, 298K. The arrangement: species or system rhesus monkey. As to the method:
We then collected series of ^15N HSQC spectra by gradually decreasing protein concentration of the R1-WT sample from […] to 10 μM. As the concentration of the sample was lowered one set of peaks became progressively weaker whereas a new set of peaks appeared and became dominant (FIG. 2A and FIG. 2B). […] The findings confirmed that the R1-WT construct exists in a dimer-monomer equilibrium and that the two distinct sets of NMR signals present at high and low concentrations correspond to the dimeric and monomeric states of the protein, respectively.
NMR spectroscopy. All NMR experiments were performed in 50 mM Sodium Phosphate (pH 7.5), 150 mM NaCl, 1 mM TCEP, 10% (v/v) D2O, 0.04% (w/v) NaN3, and the data collected at 298K on a Bruker Avance 700-MHz spectrometer equipped with a cryoprobe. Backbone assignments were carried out using standard TROSY triple resonance NMR experiments (HNCO, HN(CA)CO, HN(CO)CA, HNCA, HNCACB, and HN(CO)CACB). Protein concentrations for each experiment are shown in the corresponding figures or noted in figure legends. The NMR data were processed using NMRPipe and spectra evaluated using NMRFAM-Sparky.

T1 sequence (P61088 whole entry, other chains not shown): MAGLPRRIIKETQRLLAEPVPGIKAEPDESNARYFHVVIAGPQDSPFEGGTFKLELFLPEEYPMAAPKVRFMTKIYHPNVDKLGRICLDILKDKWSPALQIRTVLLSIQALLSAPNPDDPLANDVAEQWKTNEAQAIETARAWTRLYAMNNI
T1 sequence (Q15819 whole entry partner, other chains not shown): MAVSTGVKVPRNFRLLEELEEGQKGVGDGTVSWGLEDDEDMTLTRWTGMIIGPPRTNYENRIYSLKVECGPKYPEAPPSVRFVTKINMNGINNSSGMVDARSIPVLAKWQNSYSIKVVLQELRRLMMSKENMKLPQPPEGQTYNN

B1: R2-WT: tandem RING dimer; R82 of first RING linked to A2 of second through Gly-Ser linker (protein)
chain: ASGILLNVKEEVTCPICLELLTEPLSLHCGHSFCQACITANHKKSMLYKEGERSCPVCRISYQPENIQPNRHVANIVEKLRGSASGILLNVKEEVTCPICLELLTEPLSLHCGHSFCQACITANHKKSMLYKEGERSCPVCRISYQPENIQPNRHVANIVEKLREVKLSPEEGQ
Turning to B1, in the data set with UBE2N/V2-Ub conjugate, the “E3 activity (kcat/Km, initial slopes of Michaelis-Menten curves), ubiquitin discharge from UBE2N/V2-Ub conjugate” value is given as “significantly higher than that of the R1-WT”.

B2: R1-WT: isolated RING monomer construct, residues 2-89 of the rhesus TRIM5α (protein)
chain: ASGILLNVKEEVTCPICLELLTEPLSLHCGHSFCQACITANHKKSMLYKEGERSCPVCRISYQPENIQPNRHVANIVEKLREVKLSPEE
B2: the dimer-monomer exchange rate with TRIM5α RING domain was below 10 Hz.
